From patent US20200002439A1

Columns and labels:
human TGFβ1 (human) = human TGFβ1 (human) (UniProt P01137)
[1] = target: recombinant human Ang2 (human) (UniProt O15123); assay: blocking ELISA: Ang2 coated on the plate, binding of recombinant human Tie2 is blocked
[2] = target: His tagged human Angiopoietin-2 (human) (UniProt O15123); assay: bio-layer interferometry, rhAng2-His
His tagged human Angiopoietin-2 (human), sequence (O15123 19-496 limits assumed): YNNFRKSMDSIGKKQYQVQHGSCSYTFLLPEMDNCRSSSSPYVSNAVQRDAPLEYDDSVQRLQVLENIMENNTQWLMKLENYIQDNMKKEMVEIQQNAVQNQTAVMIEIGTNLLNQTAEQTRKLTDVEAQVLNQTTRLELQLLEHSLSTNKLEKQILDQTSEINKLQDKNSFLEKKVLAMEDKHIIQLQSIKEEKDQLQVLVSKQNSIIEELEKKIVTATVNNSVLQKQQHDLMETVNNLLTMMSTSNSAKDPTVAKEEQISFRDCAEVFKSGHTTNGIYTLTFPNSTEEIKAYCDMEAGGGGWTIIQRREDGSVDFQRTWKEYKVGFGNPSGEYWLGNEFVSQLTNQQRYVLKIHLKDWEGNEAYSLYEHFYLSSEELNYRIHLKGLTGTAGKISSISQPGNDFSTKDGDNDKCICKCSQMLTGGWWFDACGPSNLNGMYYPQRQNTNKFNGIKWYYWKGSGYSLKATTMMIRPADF

recombinant human Ang2 (human), sequence (O15123 19-496 limits assumed): as above
human TGFβ1 (human), sequence (P01137 279-390 limits assumed): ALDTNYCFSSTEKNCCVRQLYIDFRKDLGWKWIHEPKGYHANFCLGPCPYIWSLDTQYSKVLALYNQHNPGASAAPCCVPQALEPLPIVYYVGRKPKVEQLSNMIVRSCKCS

Substance | IC50; luciferase signal of TGFβ/SMAD SBE Reporter-HEK293 cells stimulated with human TGFβ1 (human TGFβ1 (human)) [nM] | IC50 [1] [nM] | Kd [2] [nM] | koff [2] [s⁻¹] | kon [2] [M⁻¹ s⁻¹]
TGFβ1 RII-Fc (from UniProt P37173 24-159) (Fc fusion) | 2.02 | – | – | – | –
bevacizumab-trebananib | – | 0.57 | – | – | –
trebananib (Fc fusion) | – | 0.5 | 1.23 | 0.000146 | 119000
